Assay results published in PMC3790000, “The Extended Transmembrane Orai1 N-terminal (ETON) Region Combines Binding Interface and Gate for Orai1 Activation by STIM1*^([image sbox.jpg])^♦” (The Journal of Biological Chemistry, 2013).

Biological target: T1, YFP-STIM1 233–485 (human, UniProt Q13586-1 233-485)
T1 construct: the YFP fluorescence is the read-out of the thermophoresis; also called STIM1 233–485 C-terminal fragment; slightly extended OASF fragment; source: HEK293, transfected, in lysate (supernatant after Nonidet P40 lysis)
Assay: MST; monolith NT.115 (Nanotemper); YFP-STIM1 233–485 (or free YFP) in HEK293 cell lysate kept constant, Orai1 peptide varied, up to 16 dilutions, 5 min incubation, glass capillaries; curve fitted to a one-site binding model
Conditions: one partner purified

T1 sequence (Q13586 233-485): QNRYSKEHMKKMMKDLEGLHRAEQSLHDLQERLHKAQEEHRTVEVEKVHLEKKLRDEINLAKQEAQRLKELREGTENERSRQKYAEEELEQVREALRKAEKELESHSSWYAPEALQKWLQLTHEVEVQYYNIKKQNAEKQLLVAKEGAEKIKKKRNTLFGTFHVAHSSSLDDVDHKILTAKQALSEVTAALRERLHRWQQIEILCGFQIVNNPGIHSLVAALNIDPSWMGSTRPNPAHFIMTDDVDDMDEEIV

B1: Orai1 N-terminal peptide aa77–91 (peptide, UniProt Q96D31-1 77-91, looked up)
peptide: RKLYLSRAKLKASSR
notes: also called Orai1 NT(aa77–91); Orai1 aa77–91; source: synthetic peptide, bought: peptide 2.0
- Kd: > 4700 µM

B2: Orai1 aa70–91 L74E/W76E N-terminal peptide (peptide, UniProt Q96D31-1 70-91, looked up)
peptide: SMQAESERKLYLSRAKLKASSR
notes: also called Orai1 NT(aa70–91 L74E/W76E); source: synthetic peptide, bought: peptide 2.0
- Kd: 406 ± 68 µM
